Data: PMC10197565 (bioRxiv, 2023)

Target: the molecule itself
Assay: cryo-EM structure

B1: MBP-Vpu full length (HIV-1 Vpu fused to maltose binding protein) (natural protein)
chain: MQPIPIVAIVALVVAIIIAIVVWSIVIIEYRKILRQRKIDRLIDRLIERAEDSGNESEGEISALVEMGVEMGHHAPWDVDDL
- stoichiometry N: 6
